# Reference: patent US20100166741A1 (Genentech, published 2010)
# Changes are numbered by the printed parent chain. In names and notes the source's numbering stands.
# T1: human FcγRIIb extracellular domain, His-tagged GST fusion (human, UniProt P31994 43-217)
# T1 construct: extracellular domain; also called hFcgRIIb; CD32B; not shown: C-terminal Gly/His6/GST tag
# T1 sequence (looked up): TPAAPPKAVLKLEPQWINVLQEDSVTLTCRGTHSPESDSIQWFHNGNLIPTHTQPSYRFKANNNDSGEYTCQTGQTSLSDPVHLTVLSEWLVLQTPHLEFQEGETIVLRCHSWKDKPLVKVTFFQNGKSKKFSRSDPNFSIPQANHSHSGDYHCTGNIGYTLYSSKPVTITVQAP
# T2: human FcγRIIa extracellular domain, His-tagged GST fusion (human, UniProt P12318 34-217)
# T2 construct: extracellular domain; also called hFcgRIIa; CD32A; not shown: C-terminal Gly/His6/GST tag
# T2 sequence (looked up): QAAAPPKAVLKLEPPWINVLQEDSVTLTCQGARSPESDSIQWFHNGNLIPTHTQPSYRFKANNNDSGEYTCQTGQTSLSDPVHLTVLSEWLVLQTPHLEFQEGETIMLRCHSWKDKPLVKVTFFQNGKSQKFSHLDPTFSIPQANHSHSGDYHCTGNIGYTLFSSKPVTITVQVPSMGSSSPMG
# T3: mouse FcγRIII extracellular domain, His-tagged GST fusion (mouse, UniProt P08508 31-215)
# T3 construct: extracellular domain; also called Mouse III; not shown: His tag and GST
# T3 sequence (looked up): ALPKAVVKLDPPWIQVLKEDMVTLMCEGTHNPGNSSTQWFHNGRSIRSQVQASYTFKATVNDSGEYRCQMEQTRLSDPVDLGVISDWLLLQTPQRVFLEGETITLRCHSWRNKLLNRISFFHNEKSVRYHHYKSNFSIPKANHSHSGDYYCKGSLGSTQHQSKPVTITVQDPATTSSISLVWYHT
# T4: mouse FcγRI extracellular domain, His-tagged GST fusion (mouse, UniProt P26151 25-297)
# T4 construct: extracellular domain; also called Mouse I; mFcγRI; not shown: His tag and GST
# T4 sequence (looked up): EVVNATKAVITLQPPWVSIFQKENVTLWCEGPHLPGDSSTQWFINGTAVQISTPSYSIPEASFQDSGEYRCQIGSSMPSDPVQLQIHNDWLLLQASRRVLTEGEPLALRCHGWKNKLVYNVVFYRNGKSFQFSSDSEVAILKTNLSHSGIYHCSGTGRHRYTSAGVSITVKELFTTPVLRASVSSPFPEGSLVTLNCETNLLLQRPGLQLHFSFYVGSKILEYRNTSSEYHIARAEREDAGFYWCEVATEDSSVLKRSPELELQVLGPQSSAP
# T5: mouse FcγRII extracellular domain, His-tagged GST fusion (mouse, UniProt P08101 30-210)
# T5 construct: extracellular domain; also called Mouse II; not shown: His tag and GST
# T5 sequence (looked up): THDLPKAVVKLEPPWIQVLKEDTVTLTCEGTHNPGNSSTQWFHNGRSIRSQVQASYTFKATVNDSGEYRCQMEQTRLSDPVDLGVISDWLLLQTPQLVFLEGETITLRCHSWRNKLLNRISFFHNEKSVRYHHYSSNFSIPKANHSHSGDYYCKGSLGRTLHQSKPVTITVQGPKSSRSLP
# B1: 9.1(9) (antibody, human IgG1, kappa)
# heavy: EVQLVESGGGLVQPGGSLRLSCAASGFTVTAYYMSWVRQAPGKGLEWVGFIRDKANGYTTEYNPSVKGRFTISRDTSKNTFYLQMNSLRAEDTAVYYCAQVRRALDYWGQGTLVTVSSASTKGPSVFPLAPSSKSTSGGTAALGCLVKDYFPEPVTVSWNSGALTSGVHTFPAVLQSSGLYSLSSVVTVPSSSLGTQTYICNVNHKPSNTKVDKKVEPKSCDKTHTCPPCPAPELLGGPDVFLFPPKPKDTLMISRTPEVTCVVVDVSDEDPEVKFNWYVDGVEVHNAKTKPREEQYNATYRVVSVLTVLHQDWLNGKEYKCKVSNKALPAPEEKTISKAKGQPREPQVYTLPPSREEMTKNQVSLTCLVKGFYPSDIAVEWESNGQPENNYKTTPPVLDSDGSFFLYSKLTVDKSRWQQGNVFSCSVMHEALHNHYTQKSLSLSPG
# light: DIQMTQSPSSLSASVGDRVTITCKSSQSLLYSSNQNNYLAWYQQKPGKAPKLLIYWASTRESGVPSRFSGSGSGTDFTLTISSLQPEDFATYYCQQYYTYPYTFGQGTKVEIKRTVAAPSVFIFPPSDEQLKSGTASVVCLLNNFYPREAKVQWKVDNALQSGNSQESVTEQDSKDSTYSLSSTLTLSKADYEKHKVYACEVTHQGLSSPVTKSFNRGEC
# notes: Fc variant of 9.1RF, expressed in 293 cells; also called 9.1RF 239D/268D/298A/332E
# B2: 9.1(10) (antibody, human IgG1, kappa)
# heavy: B1 heavy with K327A
# light: B1 light
# notes: Fc variant of 9.1RF, expressed in 293 cells; also called 9.1RF 239D/268D/298A/326A/332E
# B3: 9.1-RF N434W (antibody, human IgG1, kappa)
# heavy: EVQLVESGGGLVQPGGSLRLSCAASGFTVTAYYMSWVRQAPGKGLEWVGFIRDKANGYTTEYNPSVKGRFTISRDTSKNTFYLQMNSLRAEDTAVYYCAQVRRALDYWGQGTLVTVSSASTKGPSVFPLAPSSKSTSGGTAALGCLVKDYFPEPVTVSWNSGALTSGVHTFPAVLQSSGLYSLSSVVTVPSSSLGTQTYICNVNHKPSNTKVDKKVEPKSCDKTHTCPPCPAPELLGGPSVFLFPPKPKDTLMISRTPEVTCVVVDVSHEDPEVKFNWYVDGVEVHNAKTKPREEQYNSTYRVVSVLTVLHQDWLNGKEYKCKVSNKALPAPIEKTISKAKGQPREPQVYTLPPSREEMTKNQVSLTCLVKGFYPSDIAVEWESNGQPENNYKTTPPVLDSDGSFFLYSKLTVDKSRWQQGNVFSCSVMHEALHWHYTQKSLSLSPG
# light: B1 light
# notes: also called Hu9.1RF IgG1 with an N434W mutation; Control (agonistic positive control)
# B4: 9.1-RF N434A (antibody, human IgG1, kappa)
# heavy: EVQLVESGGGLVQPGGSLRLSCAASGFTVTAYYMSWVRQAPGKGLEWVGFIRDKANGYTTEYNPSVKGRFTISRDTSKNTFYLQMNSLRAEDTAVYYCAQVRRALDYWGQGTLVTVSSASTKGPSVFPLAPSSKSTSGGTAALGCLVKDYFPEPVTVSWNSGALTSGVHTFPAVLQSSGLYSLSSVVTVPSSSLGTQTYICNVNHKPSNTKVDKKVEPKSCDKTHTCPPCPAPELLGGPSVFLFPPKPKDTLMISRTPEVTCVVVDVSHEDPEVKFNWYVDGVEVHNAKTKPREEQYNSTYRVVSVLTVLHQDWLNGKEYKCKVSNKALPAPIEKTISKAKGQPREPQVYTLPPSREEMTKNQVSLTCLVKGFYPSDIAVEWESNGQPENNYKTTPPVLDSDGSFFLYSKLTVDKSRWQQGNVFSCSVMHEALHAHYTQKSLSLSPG
# light: B1 light
# notes: also called 9.1RF-IgG (N434X), X = A
# B5: 9.1(5) (antibody, human IgG1, kappa)
# heavy: B1 heavy with D240S, D269H, K327A, E333I, E334A, K335A
# light: B1 light
# notes: Fc variant of 9.1RF, expressed in CHO; also called 9.1RF S298A/K326A/E333A/K334A
# B6: 9.1(7) (antibody, human IgG1, kappa)
# heavy: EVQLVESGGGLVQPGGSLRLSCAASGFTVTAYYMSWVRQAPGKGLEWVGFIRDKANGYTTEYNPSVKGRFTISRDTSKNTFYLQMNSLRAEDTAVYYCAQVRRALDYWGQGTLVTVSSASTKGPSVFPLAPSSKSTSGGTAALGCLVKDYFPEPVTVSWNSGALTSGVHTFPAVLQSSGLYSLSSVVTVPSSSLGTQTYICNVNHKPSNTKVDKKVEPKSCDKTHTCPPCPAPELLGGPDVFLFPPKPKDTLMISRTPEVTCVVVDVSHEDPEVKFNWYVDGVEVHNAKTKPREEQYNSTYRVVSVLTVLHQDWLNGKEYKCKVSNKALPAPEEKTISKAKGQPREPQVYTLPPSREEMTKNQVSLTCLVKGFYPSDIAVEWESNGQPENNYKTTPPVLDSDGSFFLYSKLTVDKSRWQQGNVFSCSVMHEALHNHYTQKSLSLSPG
# light: B1 light
# notes: Fc variant of 9.1RF, expressed in CHO; also called 9.1RF 239D/332E
# B7: 9.1(6) (antibody, human IgG1, kappa)
# heavy: B1 heavy with D240S, D269H, E333I, E334A, K335A
# light: B1 light
# notes: Fc variant of 9.1RF, expressed in CHO; also called 9.1RF S298A/E333A/K334A
# B8: 9.1(8) (antibody, human IgG1, kappa)
# heavy: B1 heavy with D269H
# light: B1 light
# notes: Fc variant of 9.1RF, expressed in CHO; also called 9.1RF 239D/298A/332E
# Biological target: T6, human FcγRI extracellular domain, His-tagged GST fusion (human, UniProt P12314 16-292)
# T6 construct: extracellular domain; also called hFcgRI; FcγRIA; not shown: C-terminal Gly/His6/GST tag
# Assay: Fcγ receptor ELISA; bar = fold increase in binding over Herceptin, log axis 0.1-1000
row,binding result,Binder
1,binds,B1
2,binds,B2

# Biological target: T1, human FcγRIIb extracellular domain, …
# Assay: as above
row,binding result,Binder
1,binds,B1
2,binds,B2

# Biological target: T1, human FcγRIIb extracellular domain, …
# Assay: ELISA, FcγR-His-GST captured by anti-GST, complexed IgG
# Protocol: (§1) MaxiSorp 96-well microwell plates (Nunc, Roskilde, Denmark) were coated with 2 μg/ml anti-GST (clone 8E2.1.1, Genentech), at 100 μl/well in 50 mM carbonate buffer, pH 9.6, at 4° C. overnight. Plates were washed with PBS containing 0.05% polysorbate, pH 7.4 (wash buffer) and blocked with PBS containing 0.5% BSA, pH 7.4, at 150 μl/well. After an hour incubation at room temperature, plates were washed with wash buffer. […] The plates were incubated for one hour and washed with wash buffer. For low affinity Fcγ receptors IIa, IIb, III (F158) and high affinity III (V158), antibodies were incubated with goat F(ab′)₂ anti-κ (Cappel, ICN Pharmaceuticals, Inc., Aurora, Ohio) or anti-λ. (BioSource, Camarillo, Calif.) antibody at a 1:2 (w/w) ratio for 1 hour to form antibody complexes. […] After a two-hour incubation, plates were washed with wash buffer. Bound IgG was detected by adding peroxidase labeled goat F(ab′)₂ anti-human IgG F(ab′)₂ (Jackson ImmunoResearch, West Grove, Pa.) at 100 μl/well in assay buffer. After a one-hour incubation, plates were washed with wash buffer and the substrate 3,3′,5,5′-tetramethyl benzidine (TMB) (Kirkegaard & Perry Laboratories) was added at 100 μl/well. The reaction was stopped by adding 1 M phosphoric acid at 100 μl/well. Absorbance was read at 450 nm on a multiskan Ascent reader (Thermo Labsystems, Helsinki, Finland).
# (§2) The absorbance at the midpoint of the standard curve (mid-OD vs. ng/ml) was calculated. The corresponding concentrations of standard and samples at this mid-OD were determined from the titration curves using a four-parameter nonlinear regression curve-fitting program (KaleidaGraph, Synergy software, Reading, Pa.). The relative activity was calculated by dividing the mid-OD concentration of standard by that of sample.
row,binding relative to 9.1-RF,Binder
1,0.4,B3
2,0.45,B4

# Biological target: T2, human FcγRIIa extracellular domain, …
# Assay: as above
# Protocol: as §1, §2
row,binding relative to 9.1-RF,Binder
1,0.64,B3
2,0.66,B4

# Biological target: T7, human FcγRIII (CD16) on NK cells (human, UniProt P08637 17-254)
# Assay: cell-based or functional assay
row,"ADCC on BJAB cells with NK cells, relative fold increase compared to 9.1RF [fold]",Binder
1,3,B5
2,10,B1
3,7,B6
4,3,B7
5,10,B2
6,12,B8

# Biological target: T6, human FcγRI extracellular domain, …
# Assay: ELISA, FcγR-His-GST captured by anti-GST
# Protocol: as §1, §2
row,binding relative to 9.1-RF,Binder
1,1,B3
2,0.97,B4

# Biological target: T7, human FcγRIII (CD16) on NK cells
# Assay: cell-based or functional assay
# Remark: another data set of the same source
row,"ADCC on BJAB cells with NK cells, relative EC50 values against 9.1RF [fold]",Binder
1,2.8,B7

# Biological target: T3, mouse FcγRIII extracellular domain, …
# Assay: ELISA, captured FcγR-GST;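 also: antibody variants applied as dilution series to receptor wells, with retained antibody read out via an HRP-linked goat F(ab′)2 fragment recognizing human Fab′2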
# Protocol: (§3) Binding of the variant antibodies to Fcγ receptors was evaluated using an ELISA-based assay. […] Dilutions of the variant antibodies were added and allowed to bind followed by washing of the wells to remove unbound antibody. […] Bound antibody was detected with an HRP-coupled, Fab′2 fragment of a goat anti-huFab′2 antibody.
row,fold improvement in binding vs Herceptin (EC50herceptin/EC50sample) [fold],Binder
1,1.2,B5
2,9.9,B6
3,0.6,B7
4,4,B8

# Biological target: T6, human FcγRI extracellular domain, …
# Assay: ELISA, captured FcγR-GST;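 also: antibody variants applied as dilution series to receptor wells, with retained antibody read out via an HRP-linked goat F(ab′)2 fragment recognizing human Fab′2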
# Protocol: as §3
row,fold improvement in binding vs Herceptin (EC50herceptin/EC50sample) [fold],Binder
1,0.6,B5
2,0.7,B6
3,0.7,B7
4,0.7,B8

# Biological target: T1, human FcγRIIb extracellular domain, …
# Assay: ELISA, captured FcγR-GST;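 also: antibody variants applied as dilution series to receptor wells, with retained antibody read out via an HRP-linked goat F(ab′)2 fragment recognizing human Fab′2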
# Protocol: as §3
row,fold improvement in binding vs Herceptin (EC50herceptin/EC50sample) [fold],Binder
1,0.7,B5
2,17,B6
3,0.4,B7
4,3.5,B8

# Biological target: T4, mouse FcγRI extracellular domain, …
# Assay: ELISA, captured FcγR-GST;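 also: antibody variants applied as dilution series to receptor wells, with retained antibody read out via an HRP-linked goat F(ab′)2 fragment recognizing human Fab′2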
# Protocol: as §3
row,fold improvement in binding vs Herceptin (EC50herceptin/EC50sample) [fold],Binder
1,1.9,B5
2,62,B6
3,2.5,B7
4,24,B8

# Biological target: T2, human FcγRIIa extracellular domain, …
# Assay: ELISA, captured FcγR-GST
# Protocol: as §3
row,fold improvement in binding vs Herceptin (EC50herceptin/EC50sample) [fold],Binder
1,0.2,B5
2,5.3,B6
3,0.2,B7
4,0.9,B8

# Biological target: T5, mouse FcγRII extracellular domain, …
# Assay: ELISA, captured FcγR-GST
# Protocol: as §3
row,fold improvement in binding vs Herceptin (EC50herceptin/EC50sample) [fold],Binder
1,1.3,B5
2,19,B6
3,0.4,B7
4,7.6,B8
